Experimental data from publication PMC2674928, “The SARS-Unique Domain (SUD) of SARS Coronavirus Contains Two Macrodomains That Bind G-Quadruplexes”.

Columns and labels:
[1] = target: SUD_(core), the core of the SARS-unique domain (Nsp3 residues 389-652) of SARS coronavirus (SARS coronavirus (strain TOR2)); assay: crystal structure
[2] = target: SUDcore (SUDc5b) (SARS coronavirus strain TOR2, UniProt P0C6U8 1207-1470); assay: ZIGE (gel shift); 100 mM KCl; conditions: protein: recombinant; tags: N-terminal His-tag, factor Xa site linker; chain copies: 2; G4
[3] = target: full-length SUD (Nsp3c) (SARS coronavirus strain TOR2, UniProt P0C6U8 1207-1544); assay: ZIGE (gel shift); 100 mM KCl; conditions: protein: recombinant; tags: N-terminal His-tag, factor Xa site linker; G4
[4] = target: SUD-N (SARS coronavirus strain TOR2, UniProt P0C6U8 1207-1342); assay: ZIGE (gel shift); conditions: protein: recombinant; tags: N-terminal His-tag, factor Xa site linker; G4 (oligo(G) known to form quadruplexes)
[5] = target: SUD-M (SARS coronavirus strain TOR2, UniProt P0C6U8 1343-1470); assay: ZIGE (gel shift); conditions: protein: recombinant; tags: N-terminal His-tag, factor Xa site linker; G4 (oligo(G) known to form quadruplexes)

Molecule	binding result [2]	binding result [3]	also measured
SUD_(core), the core of the SARS-unique domain (Nsp3 residues 389-652) of SARS coronavirus (domain or fragment)			stoichiometry N [1]: 2
UGGGGGGAGGGAGGGAGGGA (structured_RNA) [elastin 3'-NTR RNA G4]	binds	binds	
GGGGGGGGGG (structured_DNA) [(dG)10]			binding result [4]: binds; binding result [5]: binds
GGGCGCGGGAGGAATTGGGCGGG (structured_DNA) [Bcl-2 promoter G4]	binds	binds	
UGGGGU (structured_RNA) [UG4U]	binds		
